# Source: US20070254850A1
# Target: Fas on primary mouse hepatocytes (mouse) (UniProt P25446)
# Test: cell-based or functional assay
# Chain of UniProt P25446 (P25446 22-327): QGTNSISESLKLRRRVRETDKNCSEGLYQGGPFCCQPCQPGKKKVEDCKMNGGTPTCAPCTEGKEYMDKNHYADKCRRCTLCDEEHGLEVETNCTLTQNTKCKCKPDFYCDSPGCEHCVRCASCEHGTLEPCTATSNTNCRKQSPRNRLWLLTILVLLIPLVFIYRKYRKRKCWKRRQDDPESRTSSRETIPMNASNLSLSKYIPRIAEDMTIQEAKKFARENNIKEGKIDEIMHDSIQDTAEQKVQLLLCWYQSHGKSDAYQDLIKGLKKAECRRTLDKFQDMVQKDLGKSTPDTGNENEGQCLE
substance,measurement,value
agonistic anti-Fas antibody (Jo2),"TUNEL-stained cells, hepatocytes from Fas (sequence1)-siRNA treated mice (Fas expression silenced), Jo2 500 ng/mL for 24 hours",7.9%
same,"apoptotic cells by FITC-TUNEL staining, hepatocytes from untreated or mock-treated mice, Jo2 500 ng/mL for 24 hours",87.8%
